Experimental data taken from the DeepSol protein solubility set.

Experiment: soluble on expression in E. coli; label from the status in PepcDB or PDB records

Row | Sequence | soluble on expression in E. coli
1 | MGSDKIHHHHHHMLDDIKKTLWATADKQRANMDAAEYKHIVLGLIFLKYISDTFAGRRAELTRRFADENDEYFLRECDDELLAEELEDRDYYREVNVFWVPETARWESLRSAAKQTDIGKRIDEALAEIEAENPKLKGILDKRYARSQLPDGKLGELVDLISTIGFGEDASHARDVLGQVYEYFLGQFASAEGKKGGQFYTPASIVKTLVAVLAPHHGKVYDPCCGSGGMFVQSEKFIEAHGGKLGDVSIYGQESNPTTWRLAAMNLAIRGIDYNLGREPADTFVRNQHPDLRADFVLANPPFNVSDWWHGSLEGDPRWVYGTPPQGNANYAWLQHMLYHLKPNGRAGIVLANGSMSSSQNSEGDIRRAMVDADVVEVMVALPGQLFFNTQIPACLWFLAKQKTTRKGEVLFIDARKLGSMISRVQTELTDEIIERIANTVAAWRGEAIDGVGEYADVPGYCRSVKLAEIAEHGHVLTPGRYVGAEKVEDDDEAFVEKMQKLTEMLGEQMAKGAELDQLIRQKLGGMGYEF | not soluble
2 | MSLKLLAIAPYEGLRQLFLRVAEEEGLSIKAEVGNLDEGVRLAKKAADESFDVIISRGGTATLIQQHLSIPVVEIEISGYDLLKNLLFLKEYPDKKAIVGFPQITNGVQLINELLDVSFSTVTIHSEGEAIHALKELKAQGFESVLGDVITVNEAERLGMNGFLLSSGEESVRKAFNQAKRVVKALGRDRLNYELPLSYLHEQERGLVLLDQNNDVCFVNEFAKKFQLMEFINDHSFMRQLRTPRETGAFSWSDGHSVWYIRYKAIGNQGLAIEFAQLNERVLNDHPKEGHHHHHH | soluble
3 | MGSDKIHHHHHHMTWHEVNDVIVITLPEIFDMNANLGYLTREKNECMYEIENNIITKVIAIGEIRSLVQVSVINNKQMIVQFLNDSRPVEQWKREEIVKYIHEWFDLDNDLTPFYEMAKADPLLKMPARKFYGLRVIGIPDLFEALCWGVLGQQINLAFAYSLKKQFVEAFGDSIEWNGKKYWVFPPYERIARLTPTDLADIKMTVKKSEYIIGIARLMASGELSREKLMKMNFKDAEKNLIKIRGIGPWTANYVLMRCLRFPTAFPIDDVGLIHSIKILRNMNRKPTKDEILEISVPWKEWQSYATFYLWRVLY | not soluble
4 | SESQEEIIHNIARHLAQIGDEMDHNIQPTLVRQL | soluble
5 | MTRSENFILDFTHIYIDENIEQTENIVRIDCSDILGTDLYCTKEGEAEIQKRIENFSINGVHFIDSGNYHYITKIMTDKINKKFSLVLYDHHTDMQKPMVEGMTSCGDWAAQVIEQNENLEQLILVGASEADIQQINVKNQSKLITFSAEELRNNSGREKLDLIETDVPFYISIDKDILDKHYIETNWSQGHMSLGMLEHLLKFFLKDKKIIGVDICGECQIGLPFPEYIEAEEKNAETNIELYEYIGRYMGK | not soluble
6 | GSHMAQQNILSVHILNQQTGKPAADVTVTLEKKADNGWLQLNTAKTDKDGRIKALWPEQTATTGDYRVVFKTGDYFKKQNLESFFPEIPVEFHINKVNEHYHVPLLLSQYGYSTYRGS | soluble
7 | MIESERKQIIDLIKKEVIPAIGCTEPIAVALCVAKAAETLGMKPEKIEVLLSANILKNAMGVGIPGTDMVGLPIAVALGALIGRSEYQLEVLRDCTPEAVEQGKLFIAEKRICISLKEDITEKLYIEVICTAGSQKATAVIAGGHTTFVYIATDEKVLLDKQQTANEEEEDASLELNLRKVYDFALTSPLDEIRFILDTARLNKAAAEQAFKGNYGHSLGKMLRGTYEHKVMGDSVFSHILSYTSAACDARMAGAMIPVMSNSGSGNQGISATLPVVVFAEENGKTEEELIRALMLSHLTVIYIKQSLGRLSALCGCVVAATGSSCGITWLMGGNYNQVAFAVQNMIANLTGMICDGAKPSCALKVTTGVSTAVLSAMMAMEDRCVTSVEGIIDEDVDQSIRNLTRIGSQAMNETDKMVLDIMTHKGGC | not soluble
8 | MSLELKPKRFLVLDDQLVLRKLISRQASFFTRFAVEIDEFSDPAEALRSIAEGGYHLVITDIGMPGMNGIDFIKNVARLGYQSALLIISGYDGKTLQTIADMSVNLGLSCTRFLSKPYSAEAFVAALNGIFSEMERSEAEGHHHHHH | not soluble
9 | MAHHHHHHMSNQGDFNTYIYIPVKCNESIKKRCELCFDVLFKLIEMKHKECYNKSKEKNLLCHNDINKGEIHKHIYYQLYKLNEHIKENNIEKDFKEPLHITISGSLNLKRYMINSFINKIKEELKNQNSFYLFFRNEVDLYKSQKNTKYFCSYTVKEDQQELYLNTLKEKINKILNEFDLKDTHLNRIYHLSLAYTNINLDVLLEKENKKCVEEETFFWPNINELILNKDIKENRLDDLYIYVNCIHIRIGYKLYKIPFKSFDDNLNVSDSYDSYMSSTDE | not soluble
10 | MGSDKIHHHHHHLAIFIQYIDTLKLVSIGKNDMYSIEQLEAFVATVKTGSFSSAARALNKAQSVISQHVINLEIDCNSELFDRSGRYPQLTPAGKKLLPHAQVLLSQHQRLRDCAQSLDQQAISELTIGLDEGIPLQKLFNIINELEAKFPTITLEFLTASSIDIIDMIDTERAVTGIIFSELTIPAHIDFESIGSIKFDMYVASTHLLAQQIYDNLAHLKLHRQLLIRSRNTKSSSFQFAISPDVWYADNYYILLELALQGHGWCLLPNHIANHYVDSGQLVMLPSEFKEIGWQANVDVIQHHRYSHEPVFKQLRHSLRQLLTYSA | not soluble
11 | MGSDKIHHHHHHMTVSQVSTGTGLGTRHVAFDWGGVFTVGTFDGRSTQNVAERSGVPVEKVRESYFRHIRQLEVGAWTLPQFWETVQQETGMTLPYADFEALYLGSIHDNAPMYTTLAALPRSVRVGLLSNNYPVVSEHLGRDPRFARFDALVFSNEIGHKKPAPEAFAALEQKMGLPAAQVAFVDDVQENIDAAGAFGFHGILYHHDAHERFEQELKEWLRG | not soluble
12 | SPSYTVLGQLPDTDVYIDIDAYEEVKEIPGIKIFQINAPIYYANSDLYSSALKRKTGVNGSENIHTVILDFTQVNFMDSVGVKTLAGIVKEYGDVGIYVYLAGCSAQVVNDLTSNRFFENPALKELLFHSIHDAVLGSQVREA | soluble
13 | VEGAVKTEPVDLFHPGFLNSSNYRIPALFKTKEGTLIASIDARRHGGADAPNNDIDTAVRRSEDGGKTWDEGQIIMDYPDKSSVIDTTLIQDDETGRIFLLVTHFPSKYGFWNAGLGSGFKNIDGKEYLCLYDSSGKEFTVRENVVYDKDSNKTEYTTNALGDLFKNGTKIDNINSSTAPLKAKGTSYINLVYSDDDGKTWSEPQNINFQVKKDWMKFLGIAPGRGIQIKNGEHKGRIVVPVYYTNEKGKQSSAVIYSDDSGKNWTIGESPNDNRKLENGKIINSKTLSDDAPQLTECQVVEMPNGQLKLFMRNLSGYLNIATSFDGGATWDETVEKDTNVLEPYCQLSVINYSQKVDGKDAVIFSNPNARSRSNGTVRIGLINQVGTYENGEPKYEFDWKYNKLVKPGYYAYSCLTELSNGNIGLLYEGTPSEEMSYIEMNLKYLESGANK | soluble
14 | ESCDLEVYDRVNQSDQLCVISGQGNKRVSFYVTEGVVRNLSLGDKMTVEKEGNAYEGVINDISTMVDDSNGLFKIKADLAQADSVATGSVVKVKVISGRSDNVMTVPVDAIYYDGGVGNVYVYEDGAVHKKEVEVGLYDSELAEIRSGLAADELVISTWSSQLYEGSTVNLKSEGGESAPAGKEPGTGRTETSAAAE | not soluble
15 | GPGSMAALAALEKEVADLKRVRVFNETVRTGVERVLASLPSPENEKDTSTKVRILLLRSQATLLLPRVSREAEKDLNAALKLQPGSATTWVELSECLLRRNAFKEACDALDNALRVNPAHTEALCKYSQIQRNRCGGEGVTADQRKAYLEDAVAKARAAVGSNVDDADAWNTLALSLLSKVTLEGMTFDGVRKALAAMQQAERKCPEDPDVPYNKAVLESLLGHFGAAAMDYWRAHALDKDRLKGTRHLSEENAKVLLRAQSRMRTSSGIGKRDFQRICTRIEQAHKKYTQSTSAKVVGVLDIVTEPTMQPVTLLVSDGKGDFVLLLLHEVRPTCFKIGDVIAYPVTTPVETITHNIVACPGVEEEPLKLTLSHAYPNPKSILVNGQPLPSSAHVPLQMSSRLFA | soluble
16 | MASLSRALRVAAAHPRQSPTRGMGPCNLSSAAGPTAEKSVPYQRTLKEGQGTSVVAQGPSRPLPSTANVVVIGGGSLGCQTLYHLAKLGMSGAVLLERERLTSGTTWHTAGLLWQLRPSDVEVELLAHTRRVVSRELEEETGLHTGWIQNGGLFIASNRQRLDEYKRLMSLGKAYGVESHVLSPAETKTLYPLMNVDDLYGTLYVPHDGTMDPAGTCTTLARAASARGAQVIENCPVTGIRVWTDDFGVRRVAGVETQHGSIQTPCVVNCAGVWASAVGRMAGVKVPLVAMHHAYVVTERIEGIQNMPNVRDHDASVYLRLQGDALSVGGYEANPIFWEEVSDKFAFGLFDLDWEVFTQHIEGAINRVPVLEKTGIKSTVCGPESFTPDHKPLMGEAPELRGFFLGCGFNSAGMMLGGGCGQELAHWIIHGRPEKDMHGYDIRRFHHSLTDHPRWIRERSHESYAKNYSVVFPHDEPLAGRNMRRDPLHEELLGQGCVFQERHGWERPGWFHPRGPAPVLEYDYYGAYGSRAHEDYAYRRLLADEYTFAFPPHHDTIKKECLACRGAAAVFDMSYFGKFYLVGLDARKAADWLFSADVSRPPGSTVYTCMLNHRGGTESDLTVSRLAPSHQASPLAPAFEGDGYYLAMGGAVAQHNWSHITTVLQDQKSQCQLIDSSEDLGMISIQGPASRAILQEVLDADLSNEAFPFSTHKLLRAAGHLVRAMRLSFVGELGWELHIPKASCVPVYRAVMAAGAKHGLINAGYRAIDSLSIEKGYRHWHADLRPDDSPLEAGLAFTCKLKSPVPFLGREALEQQRAAGLRRRLVCFTMEDKVPMFGLEAIWRNGQVVGHVRRADFGFAIDKTIAYGYIHDPSGGPVSLDFVKSGDYALERMGVTYGAQAHLKSPFDPNNKRVKGIY | not soluble
17 | MSTRNSRSELEKTAVQLFRKLGTRTVLFHQAAAQALGLFPTDLKSADILNEAGPMTAGELGKKTGLSTGSVTALVDRLEKAGVCGSWKRTPNDRRRVVIVPLTASKKHIKDLFRPLSESTMDLCREYTEEELELIFSFVGKAADIMEEELERLKQ | not soluble
18 | MNPFHELEPGPEVPEVVYALIEIPKGSRNKYELDKKTGLLKLDRVLYSPFFYPVDYGIIPQTWYDDGDPFDIMVIMREPVYPLTIIEARPIGIMKMEDSGDKDWKVLAVPVEDPYFNDWKDISDVPKAFLDEIAHFFQRYKELQGKTTKIEGWGNAEEAKREILRAIEMYKEKFGKEE | soluble
19 | MSPVAAMKRKNGVALWRQIADRIRGEIAAGDHDETGMLPPEMTLAEKFGVNRHTVRSAIAALASEGILEPMQGRGTMIARKERLSFPISLRTRFTAGIGDQVKEMEALLLSHTTEPASADLAARLQLPSGAPLVRLETLRKADTRPVSRSTTWFPADRFAGIGEAYRKSGSITAAFKALGVADYVRISTVISAIHADTQDLADLELSPGAILLVTQALNADMDGVPVQYAVSRFSADTVEFTVEN | not soluble
20 | GTPEQLQAWRWEREIDERNRPLSDEELDAMFPEGYKVLPPPAGYVPI | soluble
21 | MEMTNAQRLILSNQYKMMTMLDPTNAERYRRLQTIIERGYGLQMRELDREFGELTEETCRTIIDIMEMYHALHVSWTNLKDTQAIDERRVTFLGFDAATEARYLGYVRFMVNIEGRYTHFDAGTHGFNAQTPMWEKYQRMLNVWHACPRQYHLSANEINQIINA | not soluble
22 | MRDPEFWHNKWAANQIGFHLEDVNPLLIRFWSDLAPKRSEKVLVPLCGKSEDLIWLANQHDSVQGVELSQIAVRSFFAEHFYTPTVTRLNAQHELYQFDELTLFTGDFFTAPVESVDLVYDRAALVALPEEMRAEYAQRVLQLLKPGGRILLVSMDYVQTELSGPPFSVPEAEIRTLFMGCEVRRVYQDTSIDPHLNKRTQAGLSRFAEEVWVIEKSE | not soluble
